How the values were obtained:
[1] = molecular target: T1, recombinant biotinylated human CD71 extracellular domain (human, UniProt P02786 89-760, biotinylated); assay: solution ELISA
T1 construct: extracellular domain; also called hCD71; huCD71 ECD

CD71 apical domain [2] = molecular target: T2, CD71 apical domain (UniProt P02786 189-383, limits assumed); assay: solution ELISA
T2 construct: domain: Apical domain

[3] = molecular target: T1, recombinant biotinylated human CD71 …; assay: solution ELISA, signal ratio to HSA
CD71 apical domain [4] = molecular target: T2, CD71 apical domain; assay: solution ELISA, signal ratio to HSA

T1 sequence (P02786 other isoform, or with tags, fused parts or gaps): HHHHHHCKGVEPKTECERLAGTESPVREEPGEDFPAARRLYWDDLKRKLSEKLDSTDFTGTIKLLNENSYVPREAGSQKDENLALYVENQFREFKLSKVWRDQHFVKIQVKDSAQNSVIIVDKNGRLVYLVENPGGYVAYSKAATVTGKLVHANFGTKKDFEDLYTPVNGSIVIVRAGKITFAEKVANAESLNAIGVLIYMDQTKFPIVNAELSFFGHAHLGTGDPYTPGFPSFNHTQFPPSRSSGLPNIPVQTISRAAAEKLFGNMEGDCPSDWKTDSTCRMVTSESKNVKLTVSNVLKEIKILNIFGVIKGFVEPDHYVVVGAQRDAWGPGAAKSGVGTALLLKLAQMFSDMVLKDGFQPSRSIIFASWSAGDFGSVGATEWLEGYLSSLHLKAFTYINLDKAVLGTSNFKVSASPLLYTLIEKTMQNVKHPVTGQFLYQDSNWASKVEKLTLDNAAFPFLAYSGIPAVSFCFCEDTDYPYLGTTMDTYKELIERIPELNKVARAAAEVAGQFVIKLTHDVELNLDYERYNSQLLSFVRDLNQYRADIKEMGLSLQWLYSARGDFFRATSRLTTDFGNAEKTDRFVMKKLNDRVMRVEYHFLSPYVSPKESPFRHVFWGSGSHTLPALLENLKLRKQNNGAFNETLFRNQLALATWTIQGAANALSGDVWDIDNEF
T2 sequence (P02786 189-383 limits assumed): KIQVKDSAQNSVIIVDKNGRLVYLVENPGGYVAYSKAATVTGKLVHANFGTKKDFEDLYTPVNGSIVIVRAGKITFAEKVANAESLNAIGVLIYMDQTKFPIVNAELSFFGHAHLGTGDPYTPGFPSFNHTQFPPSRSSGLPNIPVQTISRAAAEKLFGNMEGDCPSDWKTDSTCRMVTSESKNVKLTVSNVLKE

| Binder | hCD71, RLU [1] | Apical domain, RLU (CD71 apical domain [2]) | hCD71:HSA [3] | apical domain:HSA (CD71 apical domain [4]) |
| --- | --- | --- | --- | --- |
| SEQ ID NO 107 (designed binder, FN3 domain) MSLPAPKNLVVSRVTEDSARLSWTAPDAAFDSFYIAYAEPRPDGEAISLYVPGSERSYDLTGLKPGTEYSVLIHGVKGGLLSSPLSAISTT | 1.36e+06 RLU | 5.99e+06 RLU | 21.8 | 95.8 |
| SEQ ID NO 190 (designed binder, FN3 domain) MLPAPKNLVVSRVTEDSARLSWTAPDAAFDSFYIAYAEPRPDGEAISLDVPGSERSYDLTGLKPGTEYSVLIHGVKGGLLSSPLEASFTT | 385000 RLU | 4.89e+06 RLU | 16.4 | 208 |
| SEQ ID NO 201 (designed binder, FN3 domain) MLPAPKNLVVSRVTEDSARLSWTAPDAAFDSFYIAYAEPRPDGEAISLWVPGSERSYDLTGLKPGTEYSVLIHGVKGGLLSSPLLAHFTT | 3.25e+06 RLU | 7.5e+06 RLU | 14 | 32.2 |
| SEQ ID NO 195 (designed binder, FN3 domain) MLPAPKNLVVSRVTEDSARLSWTAPDAAFDSFYIAYAEPRPDGEAIILDVPGSERSYDLTGLKPGTEYSVLIHGVKGGLLSSPLSSIFTT | 4.27e+06 RLU | 7.35e+06 RLU | 103 | 177 |
| SEQ ID NO 196 (designed binder, FN3 domain) MLPAPKNLVVSRVTEDSARLSWTAPDAAFDSFYIAYAEPRPDGEAIVLWVPGSERSYDLTGLKPGTEYSVLIHGVKGGLLSSPLRASFTT | 2.13e+06 RLU | 5.93e+06 RLU | 84.6 | 235 |
| SEQ ID NO 197 (designed binder, FN3 domain) MLPAPKNLVVSRVTEDSARLSWTAPDAAFDSFYIAYAEPRPDGEAIKLDVPGSERSYDLTGLKPGTEYSVLIHGVKGGLLSSPLVAFFTT | 1.4e+06 RLU | 6.78e+06 RLU | 29.6 | 144 |
| SEQ ID NO 200 (designed binder, FN3 domain) MLPAPKNLVVSRVTEDSARLSWTAPDAAFDSFYIAYAEPRPDGEAIWLEVPGSERSYDLTGLKPGTEYSVLIHGVKGGLLSSPLVADFTT | 930000 RLU | 6.1e+06 RLU | 51.6 | 339 |
| SEQ ID NO 194 (designed binder, FN3 domain) MLPAPKNLVVSRVTEDSARLSWTAPDAAFDSFYIAYAEPRPDGEAIALLVPGSERSYDLTGLKPGTEYSVLIHGVKGGLLSSPLSAIVTT | 682000 RLU | 4.78e+06 RLU | 39 | 273 |
| SEQ ID NO 199 (designed binder, FN3 domain) MLPAPKNLVVSRVTEDSARLSWTAPDAAFDSFYIAYAEPRPDGEAIHLWVPGSERSYDLTGLKPGTEYSVLIHGVKGGLLSSPLHADFTT | 416000 RLU | 5.56e+06 RLU | 24.3 | 324 |
| SEQ ID NO 193 (designed binder, FN3 domain) MLPAPKNLVVSRVTEDSARLSWTAPDAAFDSFYIAYAEPRPDGEAISLSVPGSERSYDLTGLKPGTEYSVLIHGVKGGLLSSPLIANFTT | 1.71e+06 RLU | 6.12e+06 RLU | 61.2 | 219 |
| SEQ ID NO 198 (designed binder, FN3 domain) MLPAPKNLVVSRVTEDSARLSWTAPDAAFDSFYIAYAEPRPDGEAIILEVPGSERSYDLTGLKPGTEYSVLIHGVKGGLLSSPLVAYFTT | 3.91e+06 RLU | 7.2e+06 RLU | 186 | 342 |
| SEQ ID NO 174 (designed binder, FN3 domain) MLPAPKNLVVSRVTEDSARLSWTAPDAAFDSFFIGYLEPQPPGEAIQLWVPGSERSYDLTGLKPGTEYNVTIQGVKGGFPSMPLSAIFTT | 1.9e+06 RLU | 4.83e+06 RLU | 61.7 | 157 |
| SEQ ID NO 114 (designed binder, FN3 domain) MLPAPKNLVVSRVTEDSARLSWTTPDAAFDSFFIGYLEPQPPGEAISLQVPGSERSYDLTGLKPGTEYNVTIQGVKGGFPSSPLFAVFTT | 2.6e+06 RLU | 6.22e+06 RLU | 121 | 289 |
| SEQ ID NO 139 (designed binder, FN3 domain) MLPAPKNLVVSRVTEDSARLSWTAPDAAFDSFFIGYLEPQPPGEAIQLGVPGSERSYDLTGLKPGTEYNVTIQGVKGGFPSHPLNANFTT | 1.13e+06 RLU | 1.86e+06 RLU | 73.8 | 121 |
| SEQ ID NO 123 (designed binder, FN3 domain) MLPAPKNLVVSRVTEDSARLSWTAPDAAFDSFFIGYLEPQPPGEAIQLWVPGSERSYDLTGLKPGTEYNVTIQGVKGGFPSHPLGAVFTT | 1.25e+06 RLU | 4.78e+06 RLU | 42.7 | 163 |
| SEQ ID NO 136 (designed binder, FN3 domain) MLPAPKNLVVSRVTEDSARLSWTAPDAAFDSFFIGYLEPQPPGEAIWLHVPGSERSYDLTGLKPGTEYNVTIQGVKGGFPSIPLIAIFTT | 3.69e+06 RLU | 4.77e+06 RLU | 155 | 201 |
| SEQ ID NO 110 (designed binder, FN3 domain) MLPAPKNLVVSRVTEDSARLSWTAPDAAFDSFFIGYLEPQPPGEAIYLTVPGSERSYDLTGLKPGTEYNVTIQGVKGGFPSYPLDASFTT | 636000 RLU | 803000 RLU | 60 | 75.8 |
| SEQ ID NO 173 (designed binder, FN3 domain) MLPAPKNLVVSRVTEDSARLSWTAPDAAFDSFHIVYHEPRPSGEAIHLQVPGSERSYDLTGLKPGTEYNVTIQGVKGGFPSYPLSAFFTT | 1.49e+06 RLU | 1.8e+06 RLU | 66.5 | 80.4 |
| SEQ ID NO 140 (designed binder, FN3 domain) MLPAPKNLVVSRVTEDSARLSWTAPDAAFDSFFIGYLEPQPPGEAIQLEVPGSERSYDLTGLKPGTEYNVTIQGVKGGFPSMPLSAIFTT | 603000 RLU | 317000 RLU | 27.9 | 14.6 |
| SEQ ID NO 163 (designed binder, FN3 domain) MLPAPKNLVVSRVTEDSARLSWTAPDAAFDSFFIGYLEPQPPGEAIYLEVPGSERSYDLTGLKPGTEYNVTIQGVKGGFPSFPLKAAFTT | 313000 RLU | 74500 RLU | 11.5 | 2.7 |
| SEQ ID NO 151 (designed binder, FN3 domain) MLPAPKNLVVSRVTEDSARLSWTAPDAAFDSFFIGYLEPQPPGEAIQLWVPGSERSYDLTGLKPGTEYNVTIQGVKGGFPSRPLQAHFTT | 1.23e+06 RLU | 4.04e+06 RLU | 45.2 | 149 |
| SEQ ID NO 121 (designed binder, FN3 domain) MLPAPKNLVVSRVTEDSARLSWTAPDAAFDSFFIGYLEPQPPGEAIALWVPGSERSYDLTGLKPGTEYNVTIQGVKGGFPSMPLSAIFTT | 4.77e+06 RLU | 6.18e+06 RLU | 269 | 348 |
| SEQ ID NO 142 (designed binder, FN3 domain) MLPAPKNLVVSRVTEDSARLSWTAPDAAFDSFFIGYLEPQPPGEAIGLQVPGSERSYDLTGLKPGTEYNVTIQGVKGGFPSHPLKAQFTT | 2.97e+06 RLU | 4.36e+06 RLU | 123 | 181 |
| SEQ ID NO 108 (designed binder, FN3 domain) MLPAPKNLVVSRVTEDSARLSWTAPDAAFDSFFIGYLEPQPPGEAIQLRVPGSERSYDLTGLKPGTEYNVTIQGVKGGFPSMPLSAIFTT | 932000 RLU | 2.44e+06 RLU | 69.6 | 182 |
| SEQ ID NO 126 (designed binder, FN3 domain) MLPAPKNLVVSRVTEDSARLSWTAPDAAFDSFFIGYLEPQPPGEAIHLHVPGSERSYDLTGLKPGTEYNVTIQGVKGGFPSIPLHANFTT | 2.74e+06 RLU | 4.42e+06 RLU | 85 | 137 |
